target: T1, TRBC2 (T-cell receptor beta constant region 2) (human, UniProt A0A5B9 1-129, limits assumed); assay: ELISA
T1 construct: also called TCR beta-constant region 2
T1 sequence (A0A5B9 1-129 limits assumed): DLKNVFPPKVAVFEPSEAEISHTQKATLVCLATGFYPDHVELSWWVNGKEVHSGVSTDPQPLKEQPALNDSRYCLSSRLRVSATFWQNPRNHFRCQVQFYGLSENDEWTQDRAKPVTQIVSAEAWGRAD

binding result	Binder
no binding	Jovi Hum 19 (antibody, V domains shown, also called H-AF 5) VH: QVQLVQSGAEVKKPGASVKVSCKASGYTFTGYVMHWVRQAPGQGLEWIGFINPYNDDIQSNERFRGRVTMTRDTSISTAYMELSRLRSDDTAVYYCARGAGYNFDGAYRFFDFWGQGTMVTVSS VL: DIVMTQSPLSLPVTPGEPASISCRSSQRLVHSNGNTYLHWYLQKPGQSPRLLIYRVSNRFPGVPDRFSGSGSGTDFTLKISRVEAEDVGVYYCSQSTHVPYTFGQGTKLEIK
no binding	Jovi Hum 18 (antibody, V domains shown, also called H-AF 4) VH: QVQLVQSGAEVKKPGASVKVSCKASGYTFTGYVMHWVRQAPGQGLEWMGFINPYNDDIQSNERFRGRVTMTSDKSISTAYMELSRLRSDDTAVYYCARGAGYNFDGAYRFFDFWGQGTMVTVSS VL: DIVMTQSPLSLPVTPGEPASISCRSSQRLVHSNGNTYLHWYLQKPGQSPRLLIYRVSNRFPGVPDRFSGSGSGTDFTLKISRVEAEDVGVYYCSQSTHVPYTFGQGTKLEIK
no binding	Jovi Hum 16 (antibody, V domains shown, also called H-AF 2) VH: QVQLVQSGAEVKKPGASVKVSCKASGYTFTGYVMHWVRQAPGQGLEWMGFINPYNDDIQSNERFRGRVTMTRDKSISTAYMELSRLRSDDTAVYYCARGAGYNFDGAYRFFDFWGQGTMVTVSS VL: DIVMTQSPLSLPVTPGEPASISCRSSQRLVHSNGNTYLHWYLQKPGQSPRLLIYRVSNRFPGVPDRFSGSGSGTDFTLKISRVEAEDVGVYYCSQSTHVPYTFGQGTKLEIK
no binding	Jovi Hum 20 (antibody, V domains shown, also called H-AF 6) VH: QVQLVQSGAEVKKPGASVKVSCKASGYTFTGYVMHWVRQAPGQGLEWIGFINPYNDDIQSNERFRGRVTMTRDKSISTAYMELSRLRSDDTAVYYCARGAGYNFDGAYRFFDFWGQGTMVTVSS VL: DIVMTQSPLSLPVTPGEPASISCRSSQRLVHSNGNTYLHWYLQKPGQSPRLLIYRVSNRFPGVPDRFSGSGSGTDFTLKISRVEAEDVGVYYCSQSTHVPYTFGQGTKLEIK

More lines, now with the values behind:

Binder	binding result
Jovi Hum 8 (antibody, V domains shown, H-AF 1 carries no back-mutation (Q3, V20, M48, R71, T73), i.e. the plain H-AF062256 graft; also called H-AF 1; H-AF1, 3aaz) VH: QVQLVQSGAEVKKPGASVKVSCKASGYTFTGYVMHWVRQAPGQGLEWMGFINPYNDDIQSNERFRGRVTMTRDTSISTAYMELSRLRSDDTAVYYCARGAGYNFDGAYRFFDFWGQGTMVTVSS VL: DIVMTQSPLSLPVTPGEPASISCRSSQRLVHSNGNTYLHWYLQKPGQSPRLLIYRVSNRFPGVPDRFSGSGSGTDFTLKISRVEAEDVGVYYCSQSTHVPYTFGQGTKLEIK	no binding
Jovi Hum 26 (antibody, V domains shown, also called H-AF 12) VH: QVQLVQSGAEVKKPGASVKMSCKASGYTFTGYVMHWVRQAPGQGLEWMGFINPYNDDIQSNERFRGRVTMTSDKSISTAYMELSRLRSDDTAVYYCARGAGYNFDGAYRFFDFWGQGTMVTVSS VL: DIVMTQSPLSLPVTPGEPASISCRSSQRLVHSNGNTYLHWYLQKPGQSPRLLIYRVSNRFPGVPDRFSGSGSGTDFTLKISRVEAEDVGVYYCSQSTHVPYTFGQGTKLEIK	no binding
Jovi Hum 27 (antibody, V domains shown, also called H-AF 13) VH: QVQLVQSGAEVKKPGASVKMSCKASGYTFTGYVMHWVRQAPGQGLEWIGFINPYNDDIQSNERFRGRVTMTRDTSISTAYMELSRLRSDDTAVYYCARGAGYNFDGAYRFFDFWGQGTMVTVSS VL: DIVMTQSPLSLPVTPGEPASISCRSSQRLVHSNGNTYLHWYLQKPGQSPRLLIYRVSNRFPGVPDRFSGSGSGTDFTLKISRVEAEDVGVYYCSQSTHVPYTFGQGTKLEIK	no binding
Jovi Hum 17 (antibody, V domains shown, also called H-AF 3) VH: QVQLVQSGAEVKKPGASVKVSCKASGYTFTGYVMHWVRQAPGQGLEWMGFINPYNDDIQSNERFRGRVTMTSDTSISTAYMELSRLRSDDTAVYYCARGAGYNFDGAYRFFDFWGQGTMVTVSS VL: DIVMTQSPLSLPVTPGEPASISCRSSQRLVHSNGNTYLHWYLQKPGQSPRLLIYRVSNRFPGVPDRFSGSGSGTDFTLKISRVEAEDVGVYYCSQSTHVPYTFGQGTKLEIK	no binding

— patent US20260274948A1 (AUTOLUS, published 2026)
